In patent US20220348925, “COMPOSITIONS AND METHODS FOR THE TARGETING OF SOD1” (Scribe Therapeutics Inc., published 2022):

Target: T1, CasX 119 (in cells) (Planctomycetes)
T1 chain: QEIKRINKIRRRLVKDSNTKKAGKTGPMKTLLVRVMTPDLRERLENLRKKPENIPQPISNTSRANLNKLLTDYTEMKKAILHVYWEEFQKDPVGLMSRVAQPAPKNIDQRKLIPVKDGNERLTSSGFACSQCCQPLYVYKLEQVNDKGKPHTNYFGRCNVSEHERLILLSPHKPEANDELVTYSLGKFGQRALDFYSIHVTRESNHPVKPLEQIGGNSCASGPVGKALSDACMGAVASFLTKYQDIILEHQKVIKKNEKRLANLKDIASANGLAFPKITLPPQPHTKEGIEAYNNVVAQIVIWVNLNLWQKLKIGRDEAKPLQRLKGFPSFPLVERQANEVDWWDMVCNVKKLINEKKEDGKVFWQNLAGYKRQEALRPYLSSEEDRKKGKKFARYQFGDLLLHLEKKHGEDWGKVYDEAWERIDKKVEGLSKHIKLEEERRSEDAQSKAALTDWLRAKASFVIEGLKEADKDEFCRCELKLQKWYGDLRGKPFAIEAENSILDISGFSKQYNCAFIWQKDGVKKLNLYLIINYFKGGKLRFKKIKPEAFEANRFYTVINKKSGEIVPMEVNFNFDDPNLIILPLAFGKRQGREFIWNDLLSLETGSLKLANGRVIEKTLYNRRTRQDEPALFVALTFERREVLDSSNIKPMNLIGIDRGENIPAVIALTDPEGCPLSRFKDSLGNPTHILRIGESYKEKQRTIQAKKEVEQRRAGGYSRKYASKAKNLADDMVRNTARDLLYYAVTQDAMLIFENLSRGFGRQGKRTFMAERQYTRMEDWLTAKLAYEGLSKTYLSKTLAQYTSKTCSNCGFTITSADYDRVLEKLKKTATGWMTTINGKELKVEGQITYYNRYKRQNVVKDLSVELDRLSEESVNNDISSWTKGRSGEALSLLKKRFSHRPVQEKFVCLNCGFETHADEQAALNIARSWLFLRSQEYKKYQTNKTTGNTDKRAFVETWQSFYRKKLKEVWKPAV
Experiment: cell_activity; TTC PAM; SOD1-GFP reporter, GFP disruption
Conditions: tags: NLS
Excerpt: A SOD1-GFP reporter line was constructed by knocking in GFP at the endogenous human SOD1 locus, shown schematically in FIG. 19. A reporter (e.g., GFP reporter) coupled to a gRNA targeting sequence, complementary to the gRNA spacer, is integrated into a reporter cell line. Cells are transformed or transfected with a CasX protein and/or sgRNA variant, with the spacer motif of the sgRNA complementary to and targeting the gRNA target sequence of the reporter. The ability of the CasX:sgRNA ribonucleoprotein complex to cleave the target nucleic acid sequence is assayed by FACS. Cells that lose reporter expression indicate occurrence of CasX:sgRNA ribonucleoprotein complex-mediated cleavage and indel formation. The reporting system is based on reduced GFP fluorescence upon successful modifying (editing) of the SOD1 locus, detected by flow cytometry as shown in FIG. 20.
CasX 2 (SEQ ID NO:2) and guide 2 (SEQ ID NO:5) (labeled here as StX) and CasX 119 molecule and rRNA guide 64 (119.64) (labeled here as EvoXI) with SOD1 targeting spacers (2, with an encoding sequence of […] (SEQ ID NO: 310), and spacer 4, with an encoding sequence of […] (SEQ ID NO: 366)), were lipofected into SOD1-GFP reporter cells, selected for successful lipofection using puromycin, and later assayed for GFP disruption via FACS.

B1: sgRNA 64 SOD1 spacer 2 ; SOD1 exon 2 site (spacer 2) (ssRNA ; dsDNA)
RNA: GUACUGGCGCCUUUAUCUCAUUACUUUGAGAGCCAUCACCAGCGACUAUGUCGUAUGGGUAAAGCGCUUACGGACUUCGGUCCGUAAGAAGCAUCAAAGAUGUUCAUGAGUUUGGAGAU
DNA 1: ATGTTCATGAGTTTGGAGAT
DNA 2: ATCTCCAAACTCATGAACAT
  binding signal: 35 fold vs CasX2 guide 2
